Columns and labels:
[1] = tested on: VWF-052 (VWF D′D3-Fc with non-cleavable 48 amino acid long GS linker)
[2] = tested on: VWF-055 (VWF D′D3-Fc with 34 amino acid long little a2 linker)
Chain of VWF-055 (VWF D′D3-Fc with 34 amino acid long little a2 linker) (chain, as listed by the source): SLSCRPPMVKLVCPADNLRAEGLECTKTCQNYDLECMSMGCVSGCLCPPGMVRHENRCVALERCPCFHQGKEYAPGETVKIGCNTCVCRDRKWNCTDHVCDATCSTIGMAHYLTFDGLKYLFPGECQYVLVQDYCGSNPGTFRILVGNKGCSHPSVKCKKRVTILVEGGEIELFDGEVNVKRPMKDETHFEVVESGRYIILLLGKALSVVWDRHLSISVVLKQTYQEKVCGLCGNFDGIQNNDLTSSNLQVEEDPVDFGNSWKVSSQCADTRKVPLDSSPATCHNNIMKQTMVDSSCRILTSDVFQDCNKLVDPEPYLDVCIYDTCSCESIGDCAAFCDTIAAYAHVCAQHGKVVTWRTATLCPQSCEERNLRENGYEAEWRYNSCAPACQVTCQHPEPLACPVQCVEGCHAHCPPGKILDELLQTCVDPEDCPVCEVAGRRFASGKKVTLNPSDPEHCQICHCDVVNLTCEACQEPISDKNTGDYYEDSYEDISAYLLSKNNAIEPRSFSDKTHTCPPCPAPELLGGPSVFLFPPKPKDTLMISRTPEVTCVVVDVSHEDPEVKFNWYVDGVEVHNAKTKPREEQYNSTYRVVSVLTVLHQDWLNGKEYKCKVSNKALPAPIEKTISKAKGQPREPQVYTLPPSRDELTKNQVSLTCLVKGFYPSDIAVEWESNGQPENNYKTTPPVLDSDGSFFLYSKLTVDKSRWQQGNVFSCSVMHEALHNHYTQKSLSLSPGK

Chain of VWF-052 (VWF D′D3-Fc with non-cleavable 48 amino acid long GS linker) (chain, as listed by the source): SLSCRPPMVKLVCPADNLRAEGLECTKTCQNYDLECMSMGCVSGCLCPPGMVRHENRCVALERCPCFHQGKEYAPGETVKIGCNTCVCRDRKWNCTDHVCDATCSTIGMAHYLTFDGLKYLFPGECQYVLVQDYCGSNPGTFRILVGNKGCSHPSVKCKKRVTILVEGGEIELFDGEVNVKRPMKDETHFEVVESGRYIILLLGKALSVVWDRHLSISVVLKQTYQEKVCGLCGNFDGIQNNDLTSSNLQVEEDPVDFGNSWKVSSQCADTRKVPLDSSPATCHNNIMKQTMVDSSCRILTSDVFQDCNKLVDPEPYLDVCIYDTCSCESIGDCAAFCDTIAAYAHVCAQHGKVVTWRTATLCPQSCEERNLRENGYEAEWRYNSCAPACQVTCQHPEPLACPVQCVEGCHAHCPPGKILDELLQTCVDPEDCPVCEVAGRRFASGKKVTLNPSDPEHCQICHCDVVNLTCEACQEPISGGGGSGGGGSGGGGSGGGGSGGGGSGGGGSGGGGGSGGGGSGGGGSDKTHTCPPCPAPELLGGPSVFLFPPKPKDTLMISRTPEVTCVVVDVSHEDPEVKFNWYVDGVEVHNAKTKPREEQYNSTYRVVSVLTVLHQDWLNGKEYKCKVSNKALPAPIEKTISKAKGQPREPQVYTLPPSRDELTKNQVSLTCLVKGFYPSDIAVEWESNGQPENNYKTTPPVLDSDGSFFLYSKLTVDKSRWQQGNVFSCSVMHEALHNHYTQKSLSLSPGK

human alpha-thrombin
thrombin cleavage (Biacore, release of D′D3 from captured construct) [1]: as expected is not cleaved by thrombin
thrombin cleavage (Biacore, release of D′D3 from captured construct) [2]: displayed similar thrombin cleavage as VWF-039 construct

From patent US20160229903
